For one substance, Kd results are on record in PMC10267580.

The experiment concerns the target Rab6B^Q72L, GTPase domain (residues 8-176), constitutively active mutant (mouse) (UniProt P61294). Briefly: ITC; MicroCal PEAQ-ITC, 25 °C, 50 mM Tris pH 7.5, 100 mM NaCl, 2 mM MgCl2; typically one protein (400 μM) in the syringe into its binding protein (40 μM) in the cell. Background: Isothermal titration calorimetry measures the heat released or taken up as one component is titrated into another.

Chain of Rab6B^Q72L, GTPase domain (residues 8-176), constitutively active mutant (mouse) (P61294 8-176 Q72L): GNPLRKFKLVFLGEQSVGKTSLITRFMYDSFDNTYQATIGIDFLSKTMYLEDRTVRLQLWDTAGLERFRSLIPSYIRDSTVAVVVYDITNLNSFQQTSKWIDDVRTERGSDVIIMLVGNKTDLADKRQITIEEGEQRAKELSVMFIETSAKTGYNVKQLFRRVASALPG

For “ELKS2_RBD, the region of ELKS2 corresponding to ELKS1 residues 849-922 (domain or fragment)”, the Kd (usually the equilibrium constant for the complex coming apart) came out at 8 µM.
